Test results taken from the DeepSol protein solubility set.

Experiment: soluble on expression in E. coli; label from the status in PepcDB or PDB records

Sequence	soluble on expression in E. coli
MGSDKIHHHHHHMDVLVVGATGTLGRQIARRALDEGHRVRCLVRSPKRGNFLREWGCDLVRGDLTQPESLTFALEGIEAVIDAATTRSTDSLSCYDVDWQGKVNLIKAATEAGVQRFVFCSIIDAEKHRDVPLMDIKYCTEEFLRQSGLNYTILRLAGFMQGLIAEFAIPVLEGRTAFITQDSDPIAYLSTLDIARFAVAALTTPATEKQTLPVVGPKAWSGLEIFRLCERLSGKETKIARLPLATVSAMKRFFRFFQWGWNIADRLAFSEVMACGRPFTADMAATYTAFGIDPAEITGLESYLNDYFSVMLRRLKELEFDQKKDKKKKVPF	not soluble
MTKFIGCIDLHNGEVKQIVGGTLTSKKEDVPKTNFVSQHPSSYYAKLYKDRDVQGCHVIKLGPNNDDAAREALQESPQFLQVGGGINDTNCLEWLKWASKVIVTSWLFTKEGHFQLKRLERLTELCGKDRIVVDLSCRKTQDGRWIVAMNKWQTLTDLELNADTFRELRKYTNEFLIHAADVEGLCGGIDELLVSKLFEWTKDYDDLKIVYAGGAKSVDDLKLVDELSHGKVDLTFGSSLDIFGGNLVKFEDCCRWNEKQG	soluble
GMAGAAHRLMEARMRRYDNKFARISDIDINQPESWRGRIFLTFDIDWAADFVLQDTIDLIEGAGVCATWFATHSTPLLENIRRNPLFELGVHPNFNPLLAGAHAEGVQEILDRTLELAPGCVSVRSHSLVQATSILNMFGERRLRYDCNILVPWDAGIVLQPWRHWTGDMVRVPYLWEDDVACLYDWEFDSTFDYWYQPDGINVLDFHPIHVYMNTESLRRYEDSREVHRNPVDLIRWRNTSAGSRTFLQSLLARNI	soluble
MGSDKIHHHHHHMKIAHVAPLYESVPPRLYGGTERIISYLTEALVDLGHDVTLFASGDTKTSAKLVPCRERALRLDPRPLKSEIAAHLSMLDEVRKRADDFDVIHFHLSHFLHFPFFRDMPQRTVTTPHGRLDYADLAQAYDRFPRFPMVSISRSQRARFASANWLATIHHGLPVDLYEPDFEAGSDGGYLAFLGRMSRDKRPDRAIEIARRTGLKLKLAAKIGDGDRAYFEEVVQPMIDGDRVEYVGEIGEDQKSRFLGNAAALLFPIDWPEPFGLAVIEAMACGTPVMAWSCGAMPEIVDYGVTGFVVETIEDAVATMPALLQLDRRRIRAVFERRFSADRMARDYVEAYSRLRNGHEQSRAS	not soluble
MGSDKIHHHHHHFVSIELKDRSLVNNQYKGKIKSANLSVDYEINQVMKDIDKLGLNTVNVPIIINVESINSDIMSIDNNSKEKAIKLIKKLNKKGISTILEAYPWIENGKLYETDWNPINKKRFFYTWQNAILNELIIDVANPLDVNVLNIGSNFVHLEEYQQNWGEIIDFVQSKFDGLVTYRTNWWYTKKDDLSSKLFYEQKLNNNFFDKLDFISIAAYFELSNKPVNTVDELISALHSSTVNNRGQNIKQEIYNLYKAHRKPIFFGELGFSNRESASSQPWNHTPSKAVNGEEQARCFEAYKKVFENEDWINGFSVFCVGKIDDEKNFYPSKESIKVIKSWYE	not soluble
MPFPFSRLFSFGVEHETGYVSRQSGRGRVYKGGGYSPFTITFQVSTHRSTMSDVTVAETPAVKTPTKAPKAPKSKTTKEPKAKVAAAHPPFINMVTAAISSLKERKGSSKIAILKYITANYKVGDQLTKINSRLRAALNKGVASKALVQSVGNGASGRFRVAEKAAATKKPVAKKPVAKKAATGEKKAKKTTVAKKTGDKVKKAKSPKKIAKPAAKKVAKSPAKKAAPKKAPAKKAAAPKA	not soluble
MCQLDVASIGDIASYRLSPISKLRYLRHTESPKSPKSSIAIPRKRYKRYRQISRMPKNHFWKNGDISYTETHIGDIFNMPYFQISIFPISPSLSAINTTIARHEFSRRQKSQNAYFGQTHILLFTAAYSPFLEHHHHHH	soluble
MGSDKIHHHHHHAWGAKDAEVGKAWKGWKKGQFQIHLIYTGVSESMFLIFPDGTTMLLDCGDHNAVGRGKLAVPVLPNPDRHAGEWISRYVRRVNPQKDYVDYMMLTHYHSDHGGNNKFYARKETRDGKDYYLSGFSQAAEYLTFGKAFDRCWPDYNDPLPLTQEAADAFEHMKDFYDYMLAHKKMEIEKFCLGETNQIAMKKDATAYPGFSVRNICANGRIADKEGNIRDLYAERKKSNPVKFSENGMSLGMIFTYGDFKFYTAGDFSDGWELPNGKRFEIEDAIADVVEPVSVAKINHHGHKSMTDKLVAALRPRVVVNNVWDQLHTLPSVMERFYNRNLYPGERIVCPTVFPAERRAEDAGQPWLDILNPSSFDAGHVIVNVEEGGKDYSVTYLTANDESMTVKSVMRFKS	not soluble
MVIGVPKEIKTLENRVALTPGGVESLVRRGHTVLVERGAGEGSGLSDAEYARAGAELVGREEAWGAEMVVKVKEPLPEEYGFLREGLILFTYLHLAADRGLTEAMLRSGVTGIAYETVQLPDGTLPLLVPMSEVAGRMAPQVGAQFLEKPKGGRGVLLGGVPGVAPASVVILGGGTVGTNAAKIALGMGAQVTILDVNHKRLQYLDDVFGGRVITLTATEANIKKSVQHADLLIGAVLVPGAKAPKLVTRDMLSLMKEGAVIVDVAVDQGGCVETIRPTTHAEPTYVVDGVVHYGVANMPGAVPRTSTFALTNQTLPYVLKLAEKGLDALLEDAALLKGLNTHKGRLTHPGVAEAFGLPYTPPEEALRG	soluble
MKGYFETNRIQHIIVDEAQNFHTEDGNWCEKAKGITQGGKACPRMFWIFLDYFQTSHLKESGLPDFELQYPKEELTQVVRNGDKIAEFLQQELGKIRDNPPCSIPRASLNIVHEFKWSQSISGTLKIKYLTSEKMVSYVANKCDVFLSKGYSPQDIAVLFSTDREKKAYEHMFLREMRKKRRASQMNDTSVCHSNMFDRIRRFSGLERSIVFGINPIATEQPISHNLLICLASRAMKYLYILYALTPEGQSSTVAC	not soluble
MAVPAASSIVSYGGAATSNFLTTPVTPFLAGFYNSNFVTDRINSCAPYRVDRIRKQLQDEEENGYPPADDRRRGALFCRSGTWLEMLPIENPDDGSTRVKVHGTKEESSKFSIVEFVSVAMSLVSIRGVETKNFICMDPSGKLYATPSSNYSTECVFLEEMMENYYNLYASCAYGDRFNPWYIELRRSGKPRRGPNSKKRRKASHFLVVHHDLDRLRSPVPNGNDVTDLVVASLFHQPPSHPLFRQQTVTKPPNPHRISNLRAKVEMTNQAEKQRLLEEKKRRREKKKRRREDRLRKEEQIREARRQELKSLREEELRRRYQQQQQQQASTQTRYNRPQNPANPYPTYRPLPTRSTVQSPRPAYNPYWQSPVTQAPHHNSHHHHHHHPRVSSSSDPQQRHQSQQHYLAQTVSNPNRQNVNYQRYP	not soluble
MSTQGEIRVGPSHQAKLPDLQPFPSPDGDTVTQHEELVWMPGVNDCDLLMYLRAARSMAAFAGMCDGGSTEDGCVAASRDDTTLNALNTLHESGYDAGKALQRLVKKPVPKLIEKCWTEDEVKRFVKGLRQYGKNFFRIRKELLPNKETGELITFYYYWKKTPEAALEHHHHHH	soluble
MEIIFYHPTFNAAWWVNALEKALPHARVREWKVGDNNPADYALVWQPPVEMLAGRRLKAVFVLGAGVDAILSKLNAHPEMLDASIPLFRLEDTGMGLQMQEYAVSQVLHWFRRFDDYQALKNQALWKPLPEYTREEFSVGIMGAGVLGAKVAESLQAWGFPLRCWSRSRKSWPGVESYVGREELRAFLNQTRVLINLLPNTAQTVGIINSELLDQLPDGAYVLNLARGVHVQEADLLAALDSGKLKGAMLDVFSQEPLPQESPLWRHPRVAMTPHIAAVTRPAEAIDYISRTITQLEKGEPVTGQVDRARGY	not soluble
MSLAGILGFPVAPFNTQGTLEEEALFQNIEFLLNEGLEAIFIACGSGEFQSLSQKEYEQMVEVAVSAAGGKVPVYTGVGGNLSTALDWAQLSEKKGADGYLILPPYLVHGEQEGLYQYAKTIIESTDLNAILYQRDNAVLSVEQIKRLTECEQLVGVKDGVGNMDLNINLVYTIGDRLGWLNGMPMAEVTMPAYLPIGFHSYSSAISNYIPHISRMFYDALKNGNDELVKELYRHVILPINDIRKQRKGYAVSLIKAGMEIMGLNVRNTARPPVGPVEKDHYQQLEAILKQPADRFPKKEGHHHHHH	not soluble
MAKKKKKKSFNTTRPTDPPVYPVTVPFLGHIVQFGKNPLEFMQRCKRDLKSGVFTISIGGQRVTIVGDPHEHSRFFSPRNEILSPREVYTIMTPVFGEGVAYAAPYPRMREQLNFLAEELTIAKFQNFVPAIQHEVRKFMAENWKEDEGVINLLEDCGAMIINTACQCLFGEDLRKRLNARHFAQLLSKMESSLIPAAVFMPWLLRLPLPQSARCREARAELQKILGEIIVAREKEEASKDNNTSDLLGGLLKAVYRDGTRMSLHEVCGMIVAAMFAGQHTSTITTSWSMLHLMHPKNKKWLDKLHKEIDEFPAQLNYDNVMDEMPFAERCVRESIRRDPPLLMVMRMVKAEVKVGSYVVPKGDIIACSPLLSHHDEEAFPNPRLWDPERDEKVDGAFIGFGAGVHKCIGQKFALLQVKTILATAFREYDFQLLRDEVPDPDYHTMVVGPTLNQCLVKYTRKKKLPSHHHHHH	soluble
MGSDKIHHHHHHYDLSDVNTDDAVMGESWVAPLGMGYVTSDDVVNVEKVPSIREVDGAYVMIYDGEMKIKGKSLRAASDKVEIASEDITTGDIDGLFDGDFVLALTNPHITLKSNVKNASLDCSLSIEAENTSKKEATSSDFTLSTVSPNIWIGPLDPKTDAFKFVKNEKLPGIVQIVPQKIHLSLSADSKQWTNAPADALSELRYAVELPLTPAPEFSAVSVERIEDAFDEDFVDYIFSDGSARIYGEVTNEMPFDMSIEMVIMDENNVPVDIQFPAQEVKGQSGEVIFEITKEDMPKMKDARHIDLNLHLTGRDQGEALKKGQKTTFNLKLKKEGGISI	not soluble
MVPRTEIVAIEYGTPIEELKARFIESGISKIIVYKENIDNIIGYIHSSEMFREQTDWTKSVRQLPIAPETMGAHKLMKLFMQQKKSLAVVVDEFGGTSGIVALEDLVEEIFGEIEDEHDTTSYIA	not soluble
MGSDKIHHHHHHMVILHIIAGLEKGGAESTLKRLCLNGTEHEHVVVSLSTLGSVGLELQKAGVKVYCLDIRPSITSVAAIFRLYKIIKLRKPSVVQTWMYHADLVGGIVSRVAGVKKIYWGVHHTYLIKGQSKRVTIFISRINSVLSHFIPTKIVYCANSARVAQEKIGYNKKSGIVIFNGYDTSKFKRDLKLRSVYREKLGLKETDFVIGHVGRYDSLKDYPNLINAIRKVKYKVGGLKVILVGAGLSKDNRELLNVISESTLISKFHLLGPSDDIPGIMNAIDVFVLSSSSEAFPNVLNEAMACGTPCVSTDVGDASAIVGMTGWLSAAGDSSALAEKIYAAYKEFSENKANWEERQYSCRERIVTNFSSQSMVSNYTLLWQS	not soluble
FLHAIIPVHRPLRVGVLTQPVHAEISVADPMLAAVDAAASALSQAGHQLVEVQRPYGDAPFAAFSDILALRSAKIHGQASPLVSWLRDRGGRIGGRRKAKAIAEFLSVRAQLLAAWDVD	not soluble
GARNSVLRGKKADELERIRLRPGGKKKYRLKHIVWAANKLDRFGLAESLLESKEGCQKILTVLDPMVPTGSENLKSLFNTVCVIWCIHAEEKVKDTEGAKQIVRRHLVAETGTAEKMPSTSRPTAPSSEKGGNY	soluble
MGSLVREWVGFQQFPAATQEKLIEFFGKLKQKDMNSMTVLVLGKGGVGKSSTVNSLIGEQVVRVSPFQAEGLRPVMVSRTMGGFTINIIDTPGLVEAGYVNHQALELIKGFLVNRTIDVLLYVDRLDVYAVDELDKQVVIAITQTFGKEIWCKTLLVLTHAQFSPPDELSYETFSSKRSDSLLKTIRAGSKMRKQEFEDSAIAVVYAENSGRCSKNDKDEKALPNGEAWIPNLVKAITDVATNQRKAIHVDAAALEHHHHHH	soluble
